Here are results for one molecule from doi:10.1101/2025.02.27.640524 (bioRxiv, 2025).

This test concerns the target T1, VelB-GFP (full length A. nidulans Velvet-like B fused to GFP) (Aspergillus nidulans, UniProt C8VTS4 1-369).
T1 sequence: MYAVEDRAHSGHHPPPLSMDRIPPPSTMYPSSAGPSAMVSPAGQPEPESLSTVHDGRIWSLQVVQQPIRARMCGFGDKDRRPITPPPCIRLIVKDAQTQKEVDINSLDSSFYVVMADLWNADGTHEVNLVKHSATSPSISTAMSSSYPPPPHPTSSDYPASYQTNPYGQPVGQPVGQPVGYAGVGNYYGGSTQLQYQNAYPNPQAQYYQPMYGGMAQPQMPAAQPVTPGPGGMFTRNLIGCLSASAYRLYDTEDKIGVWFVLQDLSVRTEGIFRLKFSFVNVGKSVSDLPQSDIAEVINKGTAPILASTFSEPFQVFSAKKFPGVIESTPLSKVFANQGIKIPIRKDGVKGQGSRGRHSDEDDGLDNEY
In words: co-IP.

B1: VosA-HA (A. nidulans VosA with HA tag) (natural protein)
chain: MSAANYPDPSLPRPSTSDDFELIVRQNPNRARVAGGKEKERKPVDPPPIVQIRVREEGTYLAQHYLQSPYFFMSCSLYDAQEDAPASIPPSTALTGTLVSSLHRLKDVDNTDGGFFVWGDLSIKVEGDFRLKFSLFEMRKTDVVFLKSIVSERFTVSPPKSFPGMAESTFLSRSFADQGVKLRIRKEPRTLIKRTAPRPEEYPQAAIPRSPSDRTAMQIPGSSYPAPPYQPTSRDYSYYAPVKRQRTSVDYGARGMYDADGRMRQMETYPQTATLYGQPGGYPTPMMGYPSGHGGVPDYAMSYGLPPSAQVPQMQDPAAQSRSSQQATMQSLGMVNPPGTPTPDSARAMMQQAYPRPQYSASTAVLPPLQQSRNYPQGTNGATRGYYEQSPQATPILPSQPLGTSEAERYGVPPGHTGYDHTGSANGTPR
Regarding B1, the “fold abundance of co-precipitated VosA against the VelB^ΔIDD-GFP strain” value stood at 10 fold.
